Laboratory results: the supplement of paper PMC5998384

What was measured:
[1] = test system: HeLa Kyoto; test: melting temperature (median over replicates), in situ; higher = more thermally stable
[2] = test system: HeLa Kyoto; test: solubility in G1/S (NP-40 vs SDS abundance) (log2 ratio); higher = more soluble; conditions: cell cycle stage: G1/S
[3] = test system: HeLa Kyoto; test: thermal stability score vs G1/S (z-score of summed log2 fold changes over temperatures); higher = more thermally stable than in G1/S
[4] = test system: HeLa Kyoto; test: solubility change mitosis vs G1/S (difference of NP-40 vs SDS log2 ratios) (log2 ratio difference); higher = more soluble in mitosis
[5] = cell cycle stage: early G1 (4.5 h after nocodazole release)
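Wherever melting temperature (median over replicates), in situ is given: HeLa Kyoto cells synchronized by double thymidine or nocodazole block, proteins quantified by TMT10plex mass spectrometry, three independent biological replicates.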
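Wherever solubility change mitosis vs G1/S (difference of NP-40 vs SDS log2 ratios) is given: synchronized HeLa Kyoto cells (double thymidine block for G1/S, nocodazole release for mitosis), protein amounts in NP-40 versus SDS lysates quantified by mass spectrometry, three biological replicates.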
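Wherever solubility in G1/S (NP-40 vs SDS abundance) is given: HeLa Kyoto cells arrested at G1/S by double thymidine block, proteins quantified by TMT10plex mass spectrometry in mild NP-40 versus SDS extracts, three biological replicates.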
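Wherever thermal stability score vs G1/S (z-score of summed log2 fold changes over temperatures) is given: synchronized HeLa Kyoto cells, proteins quantified by TMT10plex mass spectrometry, three biological replicates, mitosis taken 0.5 h after nocodazole release, G1/S directly after double thymidine block.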

Substance | melting temperature ([1]; cell cycle stage: G1/S) | melting temperature ([1]; cell cycle stage: mitosis) | solubility in G1/S (log2) [2] | thermal stability score [3, 5] | thermal stability score ([3]; cell cycle stage: mitosis) | solubility change mitosis (log2) [4]
MGKKGKVGKSRRDKFYHLAKETGYRSRSAFKLIQLNRRFQFLQKARALLDLCAAPGGWLQVAAKFMPVSSLIVGVDLVPIKPLPNVVTLQQDITTERCRQALRKELKTWKVDVVLNDGAPNVGASWVHDAYSQAHLTLMALRLACDFLARGGSFITKVFRSRDYQPLLWIFQQLFRRVQATKPQASRHESAEIFVVCQGFLAPDKVDSKFFDPKFAFKEVEVQAKTVTELVTKKKPKAEGYAEGDLTLYHRTSVTDFLRAANPVDFLSKASEIMVDDEELAQHPATTEDIRVCCQDIRVLGRKELRSLLNWRTKLRRYVAKKLKEQAKALDISLSSGEEDEGDEEDSTAGTTKQPSKEEEEEEEEEQLNQTLAEMKAQEVAELKRKKKKLLREQRKQRERVELKMDLPGVSIADEGETGMFSLSTIRGHQLLEEVTQGDMSAADTFLSDLPRDDIYVSDVEDDGDDTSLDSDLDPEELAGVRGHQGLRDQKRMRLTEVQDDKEEEEEENPLLVPLEEKAVLQEEQANLWFSKGSFAGIEDDADEALEISQAQLLFENRRKGRQQQQKQQLPQTPPSCLKTEIMSPLYQDEAPKGTEASSGTEAATGLEGEEKDGISDSDSSTSSEEEESWEPLRGKKRSRGPKSDDDGFEIVPIEDPAKHRILDPEGLALGAVIASSKKAKRDLIDNSFNRYTFNEDEGELPEWFVQEEKQHRIRQLPVGKKEVEHYRKRWREINARPIKKVAEAKARKKRRMLKRLEQTRKKAEAVVNTVDISEREKVAQLRSLYKKAGLGKEKRHVTYVVAKKGVGRKVRRPAGVRGHFKVVDSRMKKDQRAQQRKEQKKKHKRK [FTSJ3] | 49.7 °C | 52 °C | -2.41 | 4.05 | 7.76 | 1.11
MKEEVKGIPVRVALRCRPLVPKEISEGCQMCLSFVPGEPQVVVGTDKSFTYDFVFDPSTEQEEVFNTAVAPLIKGVFKGYNATVLAYGQTGSGKTYSMGGAYTAEQENEPTVGVIPRVIQLLFKEIDKKSDFEFTLKVSYLEIYNEEILDLLCPSREKAQINIREDPKEGIKIVGLTEKTVLVALDTVSCLEQGNNSRTVASTAMNSQSSRSHAIFTISLEQRKKSDKNSSFRSKLHLVDLAGSERQKKTKAEGDRLKEGININRGLLCLGNVISALGDDKKGGFVPYRDSKLTRLLQDSLGGNSHTLMIACVSPADSNLEETLNTLRYADRARKIKNKPIVNIDPQTAELNHLKQQVQQLQVLLLQAHGGTLPGSITVEPSENLQSLMEKNQSLVEENEKLSRGLSEAAGQTAQMLERIILTEQANEKMNAKLEELRQHAACKLDLQKLVETLEDQELKENVEIICNLQQLITQLSDETVACMAAAIDTAVEQEAQVETSPETSRSSDAFTTQHALRQAQMSKELVELNKALALKEALARKMTQNDSQLQPIQYQYQDNIKELELEVINLQKEKEELVLELQTAKKDANQAKLSERRRKRLQELEGQIADLKKKLNEQSKLLKLKESTERTVSKLNQEIRMMKNQRVQLMRQMKEDAEKFRQWKQKKDKEVIQLKERDRKRQYELLKLERNFQKQSNVLRRKTEEAAAANKRLKDALQKQREVADKRKETQSRGMEGTAARVKNWLGNEIEVMVSTEEAKRHLNDLLEDRKILAQDVAQLKEKKESGENPPPKLRRRTFSLTEVRGQVSESEDSITKQIESLETEMEFRSAQIADLQQKLLDAESEDRPKQRWENIATILEAKCALKYLIGELVSSKIQVSKLESSLKQSKTSCADMQKMLFEERNHFAEIETELQAELVRMEQQHQEKVLYLLSQLQQSQMAEKQLEESVSEKEQQLLSTLKCQDEELEKMREVCEQNQQLLRENEIIKQKLTLLQVASRQKHLPKDTLLSPDSSFEYVPPKPKPSRVKEKFLEQSMDIEDLKYCSEHSVNEHEDGDGDDDEGDDEEWKPTKLVKVSRKNIQGCSCKGWCGNKQCGCRKQKSDCGVDCCCDPTKCRNRQQGKDSLGTVERTQDSEGSFKLEDPTEVTPGLSFFNPVCATPNSKILKEMCDVEQVLSKKTPPAPSPFDLPELKHVATEYQENKAPGKKKKRALASNTSFFSGCSPIEEEAH [KIF4A] | 45.7 °C | 48.8 °C | 0.00342 | 4.91 | 8.64 | 0.00592
MTSIIKLTTLSGVQEESALCYLLQVDEFRFLLDCGWDEHFSMDIIDSLRKHVHQIDAVLLSHPDPLHLGALPYAVGKLGLNCAIYATIPVYKMGQMFMYDLYQSRHNTEDFTLFTLDDVDAAFDKIQQLKFSQIVNLKGKGHGLSITPLPAGHMIGGTIWKIVKDGEEEIVYAVDFNHKREIHLNGCSLEMLSRPSLLITDSFNATYVQPRRKQRDEQLLTNVLETLRGDGNVLIAVDTAGRVLELAQLLDQIWRTKDAGLGVYSLALLNNVSYNVVEFSKSQVEWMSDKLMRCFEDKRNNPFQFRHLSLCHGLSDLARVPSPKVVLASQPDLECGFSRDLFIQWCQDPKNSIILTYRTTPGTLARFLIDNPSEKITEIELRKRVKLEGKELEEYLEKEKLKKEAAKKLEQSKEADIDSSDESDIEEDIDQPSAHKTKHDLMMKGEGSRKGSFFKQAKKSYPMFPAPEERIKWDEYGEIIKPEDFLVPELQATEEEKSKLESGLTNGDEPMDQDLSDVPTKCISTTESIEIKARVTYIDYEGRSDGDSIKKIINQMKPRQLIIVHGPPEASQDLAECCRAFGGKDIKVYMPKLHETVDATSETHIYQVRLKDSLVSSLQFCKAKDAELAWIDGVLDMRVSKVDTGVILEEGELKDDGEDSEMQVEAPSDSSVIAQQKAMKSLFGDDEKETGEESEIIPTLEPLPPHEVPGHQSVFMNEPRLSDFKQVLLREGIQAEFVGGVLVCNNQVAVRRTETGRIGLEGCLCQDFYRIRDLLYEQYAIV [CPSF2] | 48.7 °C | 50.3 °C | -0.409 | -0.0481 | 1.62 | 0.0805
SPTBN2 | 51.8 °C | 50.8 °C | -1.02 | 0.264 | -0.194 | 0.477
MSSSVRRKGKPGKGGGKGSSRGGRGGRSHASKSHGSGGGGGGGGGGGGGNRKASSRIWDDGDDFCIFSESRRPSRPSNSNISKGESRPKWKPKAKVPLQTLHMTSENQEKVKALLRDLQEQDADAGSERGLSGEEEDDEPDCCNDERYWPAGQEPSLVPDLDPLEYAGLASVEPYVPEFTVSPFAVQKLSRYGFNTERCQAVLRMCDGDVGASLEHLLTQCFSETFGERMKISEAVNQISLDECMEQRQEEAFALKSICGEKFIERIQNRVWTIGLELEYLTSRFRKSKPKESTKNVQENSLEICKFYLKGNCKFGSKCRFKHEVPPNQIVGRIERSVDDSHLNAIEDASFLYELEIRFSKDHKYPYQAPLVAFYSTNENLPLACRLHISEFLYDKALTFAETSEPVVYSLITLLEEESEIVKLLTNTHHKYSDPPVNFLPVPSRTRINNPACHKTVIPNNSFVSNQIPEVEKASESEESDEDDGPAPVIVENESYVNLKKKISKRYDWQAKSVHAENGKICKQFRMKQASRQFQSILQERQSLPAWEERETILNLLRKHQVVVISGMTGCGKTTQIPQFILDDSLNGPPEKVANIICTQPRRISAISVAERVAKERAERVGLTVGYQIRLESVKSSATRLLYCTTGVLLRRLEGDTALQGVSHIIVDEVHERTEESDFLLLVLKDIVSQRPGLQVILMSATLNAELFSDYFNSCPVITIPGRTFPVDQFFLEDAIAVTRYVLQDGSPYMRSMKQISKEKLKARRNRTAFEEVEEDLRLSLHLQDQDSVKDAVPDQQLDFKQLLARYKGVSKSVIKTMSIMDFEKVNLELIEALLEWIVDGKHSYPPGAILVFLPGLAEIKMLYEQLQSNSLFNNRRSNRCVIHPLHSSLSSEEQQAVFVKPPAGVTKIIISTNIAETSITIDDVVYVIDSGKMKEKRYDASKGMESLEDTFVSQANALQRKGRAGRVASGVCFHLFTSHHYNHQLLKQQLPEIQRVPLEQLCLRIKILEMFSAHNLQSVFSRLIEPPHTDSLRASKIRLRDLGALTPDERLTPLGYHLASLPVDVRIGKLMLFGSIFRCLDPALTIAASLAFKSPFVSPWDKKEEANQKKLEFAFANSDYLALLQAYKGWQLSTKEGVRASYNYCRQNFLSGRVLQEMASLKRQFTELLSDIGFAREGLRAREIEKRAQGGDGVLDATGEEANSNAENPKLISAMLCAALYPNVVQVKSPEGKFQKTSTGAVRMQPKSAELKFVTKNDGYVHIHPSSVNYQVRHFDSPYLLYHEKIKTSRVFIRDCSMVSVYPLVLFGGGQVNVQLQRGEFVVSLDDGWIRFVAASHQVAELVKELRCELDQLLQDKIKNPSIDLCTCPRGSRIISTIVKLVTTQ [DHX57] | 53 °C | 51.9 °C | -0.884 | -0.0848 | -0.271 | 0.223
MGTKAQVERKLLCLFILAILLCSLALGSVTVHSSEPEVRIPENNPVKLSCAYSGFSSPRVEWKFDQGDTTRLVCYNNKITASYEDRVTFLPTGITFKSVTREDTGTYTCMVSEEGGNSYGEVKVKLIVLVPPSKPTVNIPSSATIGNRAVLTCSEQDGSPPSEYTWFKDGIVMPTNPKSTRAFSNSSYVLNPTTGELVFDPLSASDTGEYSCEARNGYGTPMTSNAVRMEAVERNVGVIVAAVLVTLILLGILVFGIWFAYSRGHFDRTKKGTSSKKVIYSQPSARSEGEFKQTSSFLV [F11R] | 58.9 °C | 59.5 °C | 0.284 | -2.07 | -2.09 | -0.139
